These results are taken from US20220064321A1 (published 2022).

Test [1] deals with CD16a on effector cells NK92MI-CD16a (UniProt P08637 17-254, limits assumed). Briefly: cell-based or functional assay.
Test [2] has as its target T1, FcγRIIIa(V158) (Sino Biological Inc, 10389-H08C1) (UniProt P08637 17-208).
T1 construct: also called Fc gamma receptor IIIa
Put plainly: binding ELISA; His-tagged FcγRIIIa captured by anti-His antibody, IgG pre-complexed with goat F(ab')2 anti-human-κ, HRP anti-human F(ab')2 detection. The protocol: (§1) High protein binding Costar 96-well plates were coated with anti-His antibody (Genscript, A00186) (1 μg/ml, 100 μl/well) in a coating buffer (0.05 M sodium carbonate buffer, pH 9.6) overnight at 4° C. The wells were washed twice with PBS/0.05% Tween 20 (pH 7.4). The plates were blocked with 5% Non-Fat Milk Powder/PBS (pH 7.4) for 1.5 hours at 37′C. Plates were washed and FcγRIIIa (Sino Biological Inc, 10389-H08C1) (1 μg/ml, 100 μl/well) in PBS/0.05% Tween 20, pH 7.4 (assay buffer) was added to the plates. Antibodies were pre-incubated with goat F(ab′)₂anti-human-κ antibody (Sigma) at a 1:2 (w/w) ratio in assay buffer for 1 h to form complex to increase binding avidity. […] After a 2 h incubation, plates were washed and bound IgG was detected by adding horseradish peroxidase (HRP)) labeled goat F(ab′)2 anti-human IgG F(ab′)2 (Sigma). After a final 1 hour incubation, plates were washed and the substrate 3,3′,5,5′-tetramethyl benzidine (TMB) (InnoReagents) was added. The reaction was stopped by adding 1 M phosphoric acid, and the OD was measured at 450 nm using a microplate reader Spectra MAX I3 (Molecular Devices).
A general note: In an ELISA, binding on a coated surface is turned into a signal by an enzyme label.

Test [3] has as its target T1, FcγRIIIa(V158) (Sino Biological Inc, …). Put plainly: binding ELISA; His-tagged FcγRIIIa captured by anti-His antibody, IgG pre-complexed with goat F(ab')2 anti-human-κ (value in the text differs from Table 4). The procedure: as §1

CD16a on effector cells NK92MI-CD16a, sequence (P08637 17-254 limits assumed): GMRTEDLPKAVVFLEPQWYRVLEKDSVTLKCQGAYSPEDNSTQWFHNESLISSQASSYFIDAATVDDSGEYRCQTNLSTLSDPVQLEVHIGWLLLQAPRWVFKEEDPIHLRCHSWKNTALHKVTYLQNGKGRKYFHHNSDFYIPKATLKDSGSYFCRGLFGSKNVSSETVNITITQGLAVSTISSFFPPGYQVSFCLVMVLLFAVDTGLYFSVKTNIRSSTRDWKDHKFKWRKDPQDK
T1 sequence (P08637 17-208 F176V limits assumed): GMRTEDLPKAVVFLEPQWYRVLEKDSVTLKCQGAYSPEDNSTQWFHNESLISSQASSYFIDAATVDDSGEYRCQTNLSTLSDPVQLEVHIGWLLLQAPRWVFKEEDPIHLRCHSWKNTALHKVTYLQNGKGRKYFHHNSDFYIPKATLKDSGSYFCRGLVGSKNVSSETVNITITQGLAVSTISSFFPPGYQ

B1: anti-CD20 antibody MIL62 (antibody, human IgG1, kappa)
light: DIVMTQTPLSLPVTPGEPASISCRSSKSLLHSNGITYLYWYLQKPGQSPQLLIYQMSNLVSGVPDRFSGSGSGTDFTLKISRVEAEDVGVYYCAQNLELPYTFGGGTKVEIKRTVAAPSVFIFPPSDEQLKSGTASVVCLLNNFYPREAKVQWKVDNALQSGNSQESVTEQDSKDSTYSLSSTLTLSKADYEKHKVYACEVTHQGLSSPVTKSFNRGEC
heavy: not shown
modifications: N-glycans on the Fc region, not bisected by N-acetylglucosamine; core-fucosylated glycans 0.43% in the example batch (made in CHOK1-AF cells, Slc35c1 knocked out)
notes: In the FcγRIIIa ELISA the IgG was pre-complexed with goat F(ab')2 anti-human-κ antibody at 1:2 (w/w); also called MIL62 antibody; humanized anti-CD20 antibody of the present invention
For the molecule B1, in test [1], the “ADCC Target cell: Daudi, EC50” value is 0.0488 ng/mL. For the same molecule, in test [1], the “ADCC Target cell: Raji, EC50” value stood at 0.00738 ng/mL. The EC50 in test [2] came out at 52 ng/mL; in test [3], 55 ng/mL.

B2: GAZYVA® (obinutuzumab) (antibody, human IgG1, kappa)
light: DIVMTQTPLSLPVTPGEPASISCRSSKSLLHSNGITYLYWYLQKPGQSPQLLIYQMSNLVSGVPDRFSGSGSGTDFTLKISRVEAEDVGVYYCAQNLELPYTFGGGTKVEIKRTVAAPSVFIFPPSDEQLKSGTASVVCLLNNFYPREAKVQWKVDNALQSGNSQESVTEQDSKDSTYSLSSTLTLSKADYEKHKVYACEVTHQGLSSPVTKSFNRGEC
heavy: not shown
modifications: N-glycans on the Fc region, more than 76% bisected by GlcNAc; core-fucosylated glycans 48.03% in the example batch
notes: In the FcγRIIIa ELISA the IgG was pre-complexed with goat F(ab')2 anti-human-κ antibody; also called afutuzumab; GA101
As for B2, in test [1], the “ADCC Target cell: Daudi, EC50” value came out at 0.111 ng/mL and the “ADCC Target cell: Raji, EC50” value worked out at 0.0143 ng/mL. In test [2], this molecule showed an EC50 of 113 ng/mL.

One may read the EC50 as the concentration that produces a half-maximal response. A lower EC50 goes with higher potency in that assay.
